According to patent US20230382979A1 (ADAPTIVE BIOTECHNOLOGIES, published 2023):
Where a chain is given by its changes, count along the chain named.

B1: antibody 2075 (antibody, V domains shown)
VH: QVQLVQSGAEVKKPGSSVKVSCTASGGTFSIYAFSWVRQAPGQGLEWMGGIIPISGTAGYAQKFQGRVTITADESTSTAYMELSSLRSEDTAIYYCARKYRYCSGSRCYTYFDYWGQGTLVTVSS
VL: DIQMTQSPSSLSASVGDRVTITCRASQSISSFLNWYQQKPGKAPKLLIYAASSLQSGVPSRFSGSGSGTDFTLTISSLQPEDSATYYCQQSYSTITFGQGTRLEIK
B2: antibody 2050 (antibody, V domains shown)
VH: QVQLVQSGAEVKKPGASVKVPCKVSGYTFTDHFIHWVRQAPGQGLEWMGWISPNSGGRNYTQKFQGRVTLTRDTAITTVHMDLSSLTPDDTAVYYCARDVRWAQLQGGFDLWGQGTMVTVSS
VL: QSALTQPASVSGSPGQSITISCTGTSSDVGSYNLVSWYQQHPGKAPKLMIYEVSKRPSGVSNRFSGSKSGNTASLTISGLQADDEADYYCCSYAGDNNFLFGGGTSLTVL
B3: antibody 1915 (antibody, V domains shown)
VH: QVQLVESGGGVVQPGRSLRLSCAASGFTFSSYAMHWVRQAPGKGLEWVAVISYDGSNKYYADSVKGRFTISRDNSKNTLYLQMDSLRAQDTAVYYCATPRDMFSSGWSSPFDYWGQGTLVTVSS
VL: DIQMTQSPSSLSASVGDRVTITCQASQDISIYLTWYQQKPGKAPKLLIYGASNLEVEVPSRFSGSGSGTEFTLTISSLQPEDFATYFCQHSDDLPVTFGGGTKVEVK
B4: antibody 1826 (antibody, V domains shown)
VH: QVQLQESGPGLVKPSETLSLTCSVTGGSTNYYYWSWIRQPPGKGLEWIGYIYYSGTTNYNPSLKDRVTMSVDKSKTQLSLKLNSVTAADTAVYYCARHARHCTNGVCQTYYYYGLDVWGLGTTVAVSA
VL: QSVLTQPPSVSAAPGQRVTISCSGSSSNIGAGYDVHWYQHLPGTAPKLLIYNNNNRPSGVPDRFSASRSGTSASLAITGVQTEDEADYYCQSFDGRLSESGVFGGGTKLTVL
B5: antibody 1823 (antibody, V domains shown)
VH: EVQLVESGGGLVKPGGSLRLSCVASGFSFGLYTMNWVRQAPGKGLEWVSYISSSTSYKYYADSVKGRVSVSRDNAKNSLYLQLNGLRVEDTAVYYCARDGYCPNGICTYYGMDVWGQGTTVTVSA
VL: EIVMTQSPATLSVSPGERATLSCRASQSVSSNLAWYQQKPGQAPRLLIYGASTRATGIPARFSGSGSGTEFTLTITGLQSEDFAVYYCQQYDKWPPAYSFGQGTKVEIK
B6: antibody 1867 (antibody, V domains shown)
VH: B5 VH with V23A, G30S, L31T, T55S, K58R, K65R, V68F, L83M, I106V, A125S
VL: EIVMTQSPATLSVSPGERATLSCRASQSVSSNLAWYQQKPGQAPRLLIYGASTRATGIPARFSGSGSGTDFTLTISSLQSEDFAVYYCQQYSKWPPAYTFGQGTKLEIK
B7: antibody 1859 (antibody, V domains shown)
VH: EVQLVESGGGLVKPGGSLRLSCAASGFSFNTYTMNWVRQAPGKGLEWVSYISSSSSYKYYSDSVKGRFSVSRDNAKKSLYLQMNGLRAEDTAVYYCARDGYCPNGVCTYYGMDVWGQGTTVTVSL
VL: B5 VL with T76S, Y87F, D92S, S99T, V106L
B8: antibody 1888 (antibody, V domains shown)
VH: B5 VH with V23A, S28T, G30S, L31S, T33S, T55S, V68F, N104K, I106V
VL: EIVMTQSPATLSVSPGERATLSCRASQSVRSRLAWFQQKPGQPPRLLIYDASIRATGIPDRFSGSGSGTEFTLIISGLQSEDFAVYYCQQYDNWPPAYTFGQGTKLEIK
B9: antibody 2020 (antibody, V domains shown)
VH: QVQLVQSGAEVKKPGASVKVSCKASGYTFTDYFMHWVRQAPGQGLEWMGWVNPLSGGTNFAQKFQGRVTMTSDTSITTVYMELSRLRSDDTAVYYCARDPPLYSSTYGMDVWGQGTTVTVSS
VL: QSALTQPASVSGSPGQSITISCTGTSSDVGAYNYVSWYQQHPGKAPKLMIYDVSDRPSGVSNRFSGSKSGNTASLTISGLQAEDEADYYCSSYTISSSVVFGGGTKLTVL
B10: antibody 1856 (antibody, V domains shown)
VH: B7 VH with Q3R, N30S, T31L, K58R, S61A, K77N, S78T, Q82E, N104R, L125A
VL: EIVMTQSPATLSVSPGERATLSCRASQTIGIRLAWYQQKPGQAPRLLIYDATIRATGIPARFSGSGSGTDFTLTISGLQSEDFAVYYCQRYNNWPPVYTFGQGTKLEMK
B11: antibody 1963 (antibody, V domains shown)
VH: QVQLVQSGAEVKKPGASVKVSCKASGYTFTSNYIHWLRQAPGQGLEWMGIIKPSGTSTISAQKFRGRVAMTRDTSTSTVYMELSSLRFEDTAIYYCARDAKRALETWGQGTMVTVSS
VL: QSVLTQPPSVSAAPGQKVTISCSGSSSNIGNNYVSWYQQLPGTAPKLLIYDNNKRPSGIPDRFSGSRSGTSATLGITGLQTGDEADYYCGTWDSSLSAWVFGGGTKLTVL
B12: antibody 1814 (antibody, V domains shown)
VH: QVQLQESGPGLVKPSETLSLTCSVSGGSINYYYWSWIRQTPGQGLEWIGFIYSSGTTNYNPSLKSRVTMSKDTAKKQFSLKLTSVTAADSAVYYCARHSRSCTNGVCQTYYYYALDVWGHGTTVTVSS
VL: QSVLTQPPSVSGAPGQRVTISCTGSGSNIGSGYDVHWYQQLPGRAPKLLIYRNRNRPSGVPDRFSGSKSGTSASLAIAGLQSEDEGDYFCQSYDGRLGESAVFGGGTRLTVL
B13: antibody 1815 (antibody, V domains shown)
VH: B12 VH with Q39K, T40S, Q43K, T68S, K71I, D72G, A74S, K76R, T83S
VL: QSVLTQPPSVSGAPGQRVTISCTGSSSNIGAGYDVHWYQQLPGTAPKLLIYANTHRPSGVPDRFSASKSGTSASLAIAGLQAEDEGDYYCQSYDGSLSESAVFGGGTRLTVL
B14: antibody 1864 (antibody, V domains shown)
VH: B12 VH with S23T, T40P, Q43K, K71V, T73S, A74S, K76S, T83S
VL: B13 VL with A52G, T54S, H55N, A82P, A101G
B15: antibody 1851 (antibody, V domains shown)
VH: B12 VH with S23T, T40S, Q43K, K71V, T73S, A74S, K76S, T83S
VL: B13 VL with A52G, T54S, H55N, A82P, A101G
B16: antibody 1870 (antibody, V domains shown)
VH: B12 VH with T40P, Q43K, K71V, A74S, K76N, T83S
VL: B13 VL with A52G, T54S, H55N, A101G
B17: antibody 1959 (antibody, V domains shown)
VH: QVQLVQSGTEVKKPGSSVRVSCQASGDTFTSHAIIWIRQAPGQGLEYLGRIIPVLDITNAAQRFLGRLTLTADKSTTTAYMELSSLRSEDTAVYYCARAPFGLIVMYDHWGQGTLVTVTA
VL: EIVLTQSPGTLSLSPGERATLSCRASQSVSGNFLAWYQQKPGQAPRLLIHETSKRATGIPDRVSGGGSGTDFTLTISRLEPEDFAVYHCQQYGTTAVTFGQGTRLDMK
B18: antibody 2706 (antibody, V domains shown)
VH: QVQLVQSGAEVKKPGSSVKVSCKASGGTFSTYAISWVRQAPGQGLEWMGGIIPLFATANYAQNFQGRVTITADKSTSTAYMELSSLRSEDTAVYYCASVRLHLEELSLSHQGDYYYGLDVWGQGTTVTVSS
VL: DIQMTQSPSSLSASVADRVTITCQASQDISHYLNWYQQKPGKAPQLLIYDASKLETGAPSRFSGSGSGTDFTFTISSLQPEDIATYYCQQYDHLPLTFGGGSKVEIK
B19: antibody 1969 (antibody, V domains shown)
VH: QVQLVQSGAEVKKPGASVKVSCKASGYSFTDYYIHWVRQAPGQGLEWMGIIKPSAGATVYAQKFRGRVSMTSDTSTGTVYMELSGLKSEDTAVYYCARDYNRSFDFWGQGTLVTVSS
VL: QSVLTQPPSVSAAPGQTVTISCAGSTSNIGKNYVSWYQHLPGTAPKLLIYDNIKRPSGIPDRFSGSTSGTSATLGITELQTGDEADYYCGTWDSSLSAYVFGTGTKVTVL

Legend:
[1] = biological target: SARS-CoV-2 spike protein, B1.1.7 (alpha variant), borne on lentiviral pseudovirus (SARS-CoV-2, B1.1.7); assay: cell-based or functional assay
[2] = biological target: SARS-CoV-2 spike protein on live virus, strain USA-WA1/2020 (SARS-CoV-2, WA01/2020 strain, UniProt P0DTC2 14-1273); assay: cell-based or functional assay
[3] = biological target: T1, Receptor-binding domain (RBD) of the SARS-CoV-2 spike protein, WA01/2020 strain (SARS-CoV-2, WA01/2020 strain, UniProt P0DTC2 319-541); assay: dose-response ELISA on coated antigen
[4] = biological target: T1, Receptor-binding domain (RBD) of the …; assay: ELISA, antibody blocks RBD binding to human ACE2
[5] = biological target: T1, Receptor-binding domain (RBD) of the …; assay: SPR (Biacore 8K), antigen immobilized, antibody injected
[6] = biological target: T1, Receptor-binding domain (RBD) of the …; assay: ELISA screening, antibody concentration not given
[7] = biological target: SARS-CoV-2 spike protein, B1.351 (beta variant), borne on lentiviral pseudovirus (SARS-CoV-2, B1.351); assay: cell-based or functional assay

Binder | Pseudo Neut, B1.1.7 IC50 (pM) [1] | binding result [6] | further results
B1 | ~7 pM |  | Live Neut, WA1/2020 IC50 (pM) [2]: 12 pM; EC50 [3]: 0.073 nM; IC50 [4]: 0.93 nM; Kd [5]: < 0.0007 nM
B2 | 200 pM |  | Live Neut, WA1/2020 IC50 (pM) [2]: 36 pM; EC50 [3]: 0.025 nM; IC50 [4]: 0.727 nM; Kd [5]: 0.115 nM
B3 |  | no binding (tested: not printed) | 
B4 |  | no binding (tested: not printed) | 
B5 | 850 pM |  | Pseudo Neut, B1.351 IC50 (pM) [7]: 133 pM
B6 |  | no binding (tested: not printed) | 
B7 | 230 pM | no binding (tested: not printed) | Pseudo Neut, B1.351 IC50 (pM) [7]: 73 pM
B8 |  | no binding (tested: not printed) | 
B9 | 13 pM |  | Live Neut, WA1/2020 IC50 (pM) [2]: 14 pM; EC50 [3]: 0.088 nM; IC50 [4]: 1.41 nM; Kd [5]: 0.0011 nM
B10 |  | no binding (tested: not printed) | 
B11 |  | no binding (tested: not printed) | 
B12 | 237 pM | no binding (tested: not printed) | Pseudo Neut, B1.351 IC50 (pM) [7]: 32 pM
B13 |  | no binding (tested: not printed) | Pseudo Neut, B1.351 IC50 (pM) [7]: 345 pM
B14 |  | no binding (tested: not printed) | 
B15 |  | no binding (tested: not printed) | 
B16 |  | no binding (tested: not printed) | 
B17 |  | no binding (tested: not printed) | 
B18 | 13 pM |  | Pseudo Neut, B1.351 IC50 (pM) [7]: > 18000 pM; Live Neut, WA1/2020 IC50 (pM) [2]: 171 pM; EC50 [3]: 0.017 nM; IC50 [4]: 0.51 nM; Kd [5]: 0.029 nM
B19 |  | no binding (tested: not printed) | 
